Data from article PMC6962426.

Biological target: histidine-tagged FcγRIIIa-158V receptor
Experiment: Fcγ receptor binding assay
Settings: read at the highest antibody concentration, x about 0.0014 (axis unit printed as µg/mL); parent: est. 260; read off a plot

Row | Substance | response [RU]
1 | IgG1-B (parent) N325D | 55
2 | IgG1-B (parent) N325Q | 17
